Results from US20020127221A1.
No end group written: not given here.

Experiments:
[1] = molecular target: CRF-R2β; assay: displacement of 125I-Sauvagine, membranes of CHO cells expressing CRFR2β, filtration assay
[2] = molecular target: CRF-R1; assay: displacement of 125I-Sauvagine, membranes of CHO cells expressing CRFR1, filtration assay
[3] = molecular target: CRF-R1; assay: cell-based or functional assay
[4] = molecular target: CRF-R2β; assay: cell-based or functional assay
[5] = molecular target: CRF-R1; assay: radioreceptor competition vs labeled sauvagine, CHO cell membranes; reference urocortin
[6] = molecular target: CRF-R2β; assay: radioreceptor competition vs 125I-[Tyr0,Glu1,Nle17]-sauvagine, CHO cell membranes
[7] = molecular target: CRF-R1; assay: assay not named in the summary; presumably 125I-sauvagine competition
[8] = molecular target: CRF-R1; assay: radioreceptor competition vs 125I-[Tyr0,Glu1,Nle17]-sauvagine, CHO cell membranes

CRF-R1, sequence (P34998 24-415): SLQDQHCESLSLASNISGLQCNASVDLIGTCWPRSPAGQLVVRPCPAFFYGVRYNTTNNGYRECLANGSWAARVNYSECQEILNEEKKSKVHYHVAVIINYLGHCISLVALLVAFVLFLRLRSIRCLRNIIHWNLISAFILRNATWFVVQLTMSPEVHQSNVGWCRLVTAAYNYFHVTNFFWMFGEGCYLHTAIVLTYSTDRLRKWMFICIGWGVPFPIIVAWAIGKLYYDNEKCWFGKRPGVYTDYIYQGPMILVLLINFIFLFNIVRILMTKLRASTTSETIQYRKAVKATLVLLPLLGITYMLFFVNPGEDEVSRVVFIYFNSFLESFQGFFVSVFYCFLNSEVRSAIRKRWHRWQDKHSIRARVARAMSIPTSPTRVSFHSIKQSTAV

| Molecule | Ki [1] [nM] | Ki [2] [nM] | Avg. EC50 (nM) (cAMP) [3] | Avg. EC50 (nM) (cAMP) [4] | fold less effective than urocortin at competing for binding of labeled sauvagine [5] [fold] | Ki [6] [nM] | Ki [7] [nM] | Ki [8] [nM] |
| --- | --- | --- | --- | --- | --- | --- | --- | --- |
| urocortin (Ucn), species not stated (from UniProt P55090 81-120) (peptide) | 0.15 | 0.13 | – | – | – | – | – | – |
| VILSLDVPIGLLRILLEQARYKAARNQAATNAQILAHV-NH2 [Urocortin II (mouse)] | – | – | > 100 | 0.14 | > 1000 | 0.66 | – | – |
| DDPPLSIDLTFHLLRTLLELARTQSQRERAEQNRIIFDSV (peptide, UniProt P55090 81-120, looked up) [Urocortin (rat)] | – | – | 0.29 | 0.17 | – | 0.62 | – | – |
| IVLSLDVPIGLLQILLEQARARAAREQATTNARILARVGHC-NH2 [human urocortin-related peptide] | 0.23 | 78 | > 100 | 0.42 | – | 0.5 | 70 | – |
| QGPPISIDLSLELLRKMIEIEKQEKEKQQAANNRLLLDTI (peptide, UniProt P01144 1-40, looked up, ends and bridges not checked) [Sauvagine (frog)] | – | – | – | – | – | 1.7 | – | 0.94 |
